Assay: yeast display, Sf9 membrane polyspecificity reagent, FACS + sequencing; frameworks hold sequencing errors
In short: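 Nanobodies from a synthetic yeast display library (Saccharomyces cerevisiae BJ5465), induced 36–48 hours with galactose, were stained 1 hour at 4 °C with 10% biotinylated, detergent-solubilized Sf9 membrane reagent, enriched on streptavidin microbeads, then FACS-sorted. Anti-HA (expression) and streptavidin (reagent binding) fluorescence set low and high (top ~1%) gates. Polyreactivity labels come from the gate of origin. Genes were colony-PCR amplified, MiSeq 2 × 250 sequenced and filtered by CDR length.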

Row | Sequence | polyreactivity (PSR sort gate)
1 | QVQLVESGGGLVQAGGSLRLSCAASGITLGYYVMGWYRQAPGKERELVAAISSSGGRTYYADSVKGRFTISRDTAKNTVYLQMNSLKPEDTAVYYCAADLGRGIYDYWGQGTQVTVSS | low polyreactivity
2 | QVQLVESGGGLVQAGGSLRLSCAASGITLTNNAMGWSRHAPGKERELVAAITRSGGSTYYADSVKGRFTISRDNAKNTVYLLMNSLKPEVTAVYCAARWYSYSGSIRSYDYWGQGTQVTVSS | low polyreactivity
3 | QVQLVESGGGLVQAGGSLRLSCAASGITLVYYVMGWYRQAPGKERELVAAISSGGITYYADSVKGRFTISRDNAKNTVYLQMNSLKPEDTAVYYCAAESRQYVRTYGYWGQGTQVTVSS | low polyreactivity
4 | QVQLVESGGGLVQAGGSLRLSCAASGITLYDNAMGWYRQEPGKERELVAAINVNDVSTYYADSVKGRFTISRDNAKNTVYLQMNSLKPEDTAVYYCAADSLYYGIGYWVVRYDYWGQGTQVTVSS | low polyreactivity
5 | QVQLVESGGGLVQAGGSLRLSCAASGITLYGYTMGWYRQAPGKERELVAGISRGGSTYYADSVKGRFTISRYNEKNTVFLQLNSLKPEDSEVYYCAAAGWYRGDYWGQGTQVTVSS | high polyreactivity
6 | QVQLVESGGGLVQAGGSLRLSCAASGITSRRYAMGWYRKAPGKEREFVAAIRTICGSTYYADSVKGRFTISRDNAKNTVYLQMNSLKPEDTAVYYCAARYFLSRSGASHLDSWGQGTQVTVSS | high polyreactivity
7 | QVQLVESGGGLVQAGGSLRLSCAASGITSWYYAMGWYRQAPGKERELVAAITSDGRTNYADSVKGRFTISRDNAKNTVYLQMNSLKPEDTAVYYCAAARRVGVSHYRYGYWGQGTQVTVSS | high polyreactivity
8 | QVQLVESGGGLVQAGGSLRLSCAASGITVGDYAMGWYRQAPGKEREVVAAISYTGGSTYYADSVKGRFTISRDNAQNTGYLQMNSLKPEDTAVYYCAADGYRDYDSWGQGTQVTVSS | high polyreactivity
9 | QVQLVESGGGLVQAGGSLRLSCAASGITVYLYAMGWYRQAPGKERELVAAISSSGGSTYYADSVKGRFTISRDNAKNTVYLQMNSLKPEDTAVYYCAAVYYTSVTIYDYWGQGTQVTVSS | high polyreactivity
10 | QVQLVESGGGLVQAGGSLRLSCAASGITYCANTMGWYRQAPGKERELVADITVTGDGTYYADSVKGRFTISRDNAKNTVYLQMNSLKPEDTAVYYCAADFWLVSFQWDFEYDYWGQGTQVTVSS | low polyreactivity
11 | QVQLVESGGGLVQAGGSLRLSCAASGITYPGYAMGWYRQAPGKERELVAVIRKSGTSTYYADSVKGRFTISRDNAKNTVYLQMNSLKPEDTAVYYCAAGGPSTLDDYWGQGTQVTVSS | low polyreactivity
12 | QVQLVESGGGLVQAGGSLRLSCAASGITYSGNAMRWYRQAPAKERELVAAISGRGGSTYYADSVKGRFTISRDNAKNTVYLLMNSLKPDDTAVYYCNADVYPYKLALPAGMGYWGQGTQVTVSS | high polyreactivity
13 | QVQLVESGGGLVQAGGSLRLSCAASGLIFADYTMGWYRQAPGKERELVAVITDGDSTYYADSVKGRFTISLDNAKNTVYLQMNTLKPEDTAVSYCAAESAGSFLDYYWAYGYWGQGTQVTVSS | low polyreactivity
14 | QVQLVESGGGLVQAGGSLRLSCAASGLIFAGYAKGWYRQAPGKERELVAAISTSGGRTYYADSVKGRFTISRDNAKNTVYLQMNSLKPEDTAVYYCAAYPVHGKTQELAKEDYWGQGTQVTVSS | high polyreactivity
15 | QVQLVESGGGLVQAGGSLRLSCAASGLIFAKYAMGWYRQAPGKERELVAAITSSGAGTYYADSVKGRFTISRDNAKNTVYLQMNCLKPEDTAVYYCATGPDPKYDYWGQGTQVTVSS | high polyreactivity
16 | QVQLVESGGGLVQAGGSLRLSCAASGLIFAKYAMGWYRQAPGKERELVAGITSGGGTYYADSVKGRFTISRDNAKNTVYLQMNSLKPEDTAVYYCAVGREYFRWIRYDYDYWGQGTQVTVSS | low polyreactivity
17 | QVQLVESGGGLVQAGGSLRLSCAASGLIFANNTMGWYRQAPGKERELVAAISATGDGNTYYADSVKGRFTISRDNAKNTVYLQMNSLKPEDTAVYYCNRLPQYALPYRHNGYWGQGTQVTVSS | low polyreactivity
18 | QVQLVESGGGLVQAGGSLRLSCAASGLIFARNVMGWYRQAPGKERELVAAISWSSGSTYYADSVKGRFTISRDNAKNTVSLQMNTLKQEDTAVYYCAARKIKSSQYFPTLYYYWGQGTQVTVSS | high polyreactivity
19 | QVQLVESGGGLVQAGGSLRLSCAASGLIFASYAMGWYRQAPGKERELVATITVGGSTYYADSVKGRFTISRDNPKNTVYLQMISLKPEDTAVYYCNVGESVPWYEWGALWFSFDYWGQGTQVSVSS | high polyreactivity
20 | QVQLVESGGGLVQAGGSLRLSCAASGLIFATYAMGWSRQAPGKERELVAAISYRGSRTYYADSVKGRFTISRDNAMTTVYLQMNILKPEDTGVYYCAAVYRTYGIGPNNYWGQGTQVTVSS | high polyreactivity
21 | QVQLVESGGGLVQAGGSLRLSCAASGLIFDKYAMGWYRQAPGKERELVAAITRSSGTTYYADSVKGRFTISRDNAKNTVYLQLNSLKPEDTAVYYCAARFIWGYWGVGYYYWGLGTQVTVSS | low polyreactivity
22 | QVQLVESGGGLVQAGGSLRLSCAASGLIFDRYPMGWYRQAPGKERELVAAINRSGGTTYYADSVKGRFTISRDNAKNTVYLQMNSLKPEDTAVYYCAARWQRYRSGTGDYWGQGTQVTVSS | high polyreactivity

Row | Sequence | polyreactivity (PSR sort gate)
23 | QVQLVESGGGLVQAGGSLRLSCAASGLIFDWYAMGWYRPAPGKERELVADISNSGGSTNYADSVKGRFTISRDSAFNTVYLQMNSLKPEDTEVYYCAVDYYYPTLTIGYYYWGQVTQVTVSS | low polyreactivity
24 | QVQLVESGGGLVQAGGSLRLSCAASGLIFEGYAMGWYRQAPGKERELVAAISSAGSTYYADSVKGRFTISRDNAKNTVYLQMNSLKPEDTAVYYCNARRRRLVSYYYWGQGTQVTVSS | high polyreactivity
25 | QVQLVESGGGLVQAGGSLRLSCAASGLIFENNAMGWYRQAPGKERELVAAITKGGGSTYYADSVKGRFTISRDNAMNTVYLQMNSLKPEDTAVYYCAKVHPWHRYWQYWYDYWGQGTQVTVSS | low polyreactivity
26 | QVQLVESGGGLVQAGGSLRLSCAASGLIFFYYAMGWYRQAPGKERELVATINLNGGSTYYADSVKGRFTISRDNAKNSVYLQMNSLKPEDTAGYYCAAAGTKYYARYYYWGQGTQVTVSS | high polyreactivity
27 | QVQLVESGGGLVQAGGSLRLSCAASGLIFGFYTMGWYRQAPGKERELVAVISSSGGSTYYADSVKGRFTISRDNAKNTVYLQMNSLKPEDTAVYYCAARAYPVRYRRRDYWGQGTQVTVSS | high polyreactivity
28 | QVQLVESGGGLVQAGGSLRLSCAASGLIFGGNAMGWYRQAPGKERELVAAISRTGGRTYYADSVKGRFTISRDNAKNTVFLQMNSLKPEDTAVYYCNAATSYYTYTYGYWGQGTQVTVSS | high polyreactivity
29 | QVQLVESGGGLVQAGGSLRLSCAASGLIFGRYAMGWYRQAPGKERELVAAISSSGVRTYYADSVKGRFTISRDNAKNTVYLQMNSLKPEDTAVSYCAAAYWSSREDTVIKSYYWGQGTQVTVSS | high polyreactivity
30 | QVQLVESGGGLVQAGGSLRLSCAASGLIFGRYAMGWYRQAPGKERELVAAISSSGVRTYYADSVKGRFTISRDNAKNTVYLQMNSLKPEDTAVYYCAAAYWSSREDTVIKRYYWGQGTQVTVSS | high polyreactivity
31 | QVQLVESGGGLVQAGGSLRLSCAASGLIFGTYAMGWYRQAPGKERELVATINSSGGSTYYADSVKGRFTISRDNAKNTVYLQMNSLKPEDTAVYYCNTRRYDAYYDYDYWGQGTQVTVSS | low polyreactivity
32 | QVQLVESGGGLVQAGGSLRLSCAASGLIFGVNAMGWYRQAPGKERELVAAISWSGSSTNYADSVKGRFTISRDNAKNTVYLQMNSLKPEDTAVYYCATDQGYRYLKIYVYGDAFDYWGQGTQVTVSS | low polyreactivity
33 | QVQLVESGGGLVQAGGSLRLSCAASGLIFGVNDMGWYRQAPGKERELVAAITSRGGSTYYADSVKGRFTISRDNAKNTVYLQMNSLKPEDTAVYYCAAKYAYYEPYSWRPQRTYNYWGQGTQVTVSS | high polyreactivity
34 | QVQLVESGGGLVQAGGSLRLSCAASGLIFGWNAMGWYRQAPGKERELVAAISSGGSTNYADSVKGRFTISRDNAKNTVYLQMNRLKPEDNAVYYCATRNGYSGTYGYWGQGTQVTVSS | low polyreactivity
35 | QVQLVESGGGLVQAGGSLRLSCAASGLIFHQYAMGWYRQAPGKERELVAAITRSGTRTYYADSVKGRFTISRDNAKNTVYLQMNSLKPEDTAVYYCNKALRTYPLFYYWGQGTQVTVSS | high polyreactivity
36 | QVQLVESGGGLVQAGGSLRLSCAASGLIFIHNTMRWYRQAPGKERELVAAISWSGASTYYADSVKGRFTISRDNAKNTVYLQMNSLKPEDTAVYYCNAGYRYSIYDYWGQGTQVTVSS | low polyreactivity
37 | QVQLVESGGGLVQAGGSLRLSCAASGLIFISYAMGWYRQAPGKERELVAAITRSAGTTYYADSVKGRFTISRDNAKNTVYLQMNSLKPEDTAVYYCNALYPITPEDYWGQGTQVTVSS | low polyreactivity
38 | QVQLVESGGGLVQAGGSLRLSCAASGLIFKRYGMGWYRQAPGKERELVAAISRSGGNTYYADSVKGRFTISRDNAKNTVYLQMNSLKPEDTAVYYCAATATYTYSDVDYWGQGTQVTVSS | high polyreactivity
39 | QVQLVESGGGLVQAGGSLRLSCAASGLIFKSNAMGWYRPAPGKERELVAAITRTGGSTYYADSVKGRFTISRDNAKNTVYLQMNSLKPEDTAVYYCAKVVGRWRSSWELDYWGQGTQVTVSS | high polyreactivity
40 | QVQLVESGGGLVQAGGSLRLSCAASGLIFKTYAIGWYRLAPGNERELVAAISWSGGGNTYYADSVKGRFTISRDNAKNTVYLQMNSLKPEDTAVYYCNAPRFVSYDYWGQGTQVTVSS | high polyreactivity
41 | QVQLVESGGGLVQAGGSLRLSCAASGLIFKVYAMGWYRQAPGKERELVAAITYSGGSTDYADSVKGRFTISRDNAKNTVYLQMNSLKPEDTAVYYCNVEKVGHVNSYGYDYWGQGTQVTVSS | low polyreactivity
42 | QVQLVESGGGLVQAGGSLRLSCAASGLIFKYKAMGWYRQAPGKERELVAAISTSGGSTYYADSVKGRFTISRDNAKNTVYLQMNSLKPEDTAVYYCNAVAGRPFRYYYWGQGTQVTVSS | high polyreactivity
43 | QVQLVESGGGLVQAGGSLRLSCAASGLIFKYNAMGWYRQAPGKERELVADINRSGGSTYYADSVKGRFTISRDNAKNTVYLQMNSLKPEDTAVYYCAAERVSLYWVIFGYWGQGTQVTVSS | low polyreactivity

Reference: the nanobody polyreactivity screen of Harvey et al. (2022)
